Measurements as given in US20200339648A1 (University of Washington, published 2020).

T1: human IL-2Rβγc on human cells (YT-1 NK cells) (human, UniProt P14784 27-551; P31785 23-369)
T1 sequence (looked up) 1: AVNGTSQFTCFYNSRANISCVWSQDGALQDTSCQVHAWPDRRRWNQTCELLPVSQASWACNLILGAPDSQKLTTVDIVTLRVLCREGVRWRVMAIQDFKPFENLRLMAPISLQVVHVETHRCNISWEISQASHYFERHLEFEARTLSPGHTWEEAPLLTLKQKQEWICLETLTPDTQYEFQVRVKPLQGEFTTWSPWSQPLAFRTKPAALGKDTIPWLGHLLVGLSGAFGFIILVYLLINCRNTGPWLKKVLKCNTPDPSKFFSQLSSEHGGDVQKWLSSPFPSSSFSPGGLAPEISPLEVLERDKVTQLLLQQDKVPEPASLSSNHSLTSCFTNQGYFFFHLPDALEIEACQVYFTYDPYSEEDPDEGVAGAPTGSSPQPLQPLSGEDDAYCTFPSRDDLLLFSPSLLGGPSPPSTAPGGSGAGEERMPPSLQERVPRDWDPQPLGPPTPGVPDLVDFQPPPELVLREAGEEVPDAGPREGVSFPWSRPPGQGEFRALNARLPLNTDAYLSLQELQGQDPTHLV
T1 sequence (looked up) 2: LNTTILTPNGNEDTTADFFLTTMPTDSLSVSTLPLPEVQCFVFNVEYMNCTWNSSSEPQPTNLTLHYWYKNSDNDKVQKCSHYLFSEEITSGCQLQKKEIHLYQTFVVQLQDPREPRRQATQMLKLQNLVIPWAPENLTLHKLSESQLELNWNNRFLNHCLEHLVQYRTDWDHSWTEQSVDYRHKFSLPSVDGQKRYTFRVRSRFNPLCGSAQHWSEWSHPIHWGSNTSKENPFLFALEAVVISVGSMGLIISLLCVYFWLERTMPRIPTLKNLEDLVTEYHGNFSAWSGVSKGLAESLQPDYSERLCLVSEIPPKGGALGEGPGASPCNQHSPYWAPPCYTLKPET

T2: mouse IL-2Rβγc on murine cells (CTLL-2 T cells, primary CD4+ T cells) (mouse, UniProt P16297 27-539; P34902 23-369)
T2 sequence (looked up) 1: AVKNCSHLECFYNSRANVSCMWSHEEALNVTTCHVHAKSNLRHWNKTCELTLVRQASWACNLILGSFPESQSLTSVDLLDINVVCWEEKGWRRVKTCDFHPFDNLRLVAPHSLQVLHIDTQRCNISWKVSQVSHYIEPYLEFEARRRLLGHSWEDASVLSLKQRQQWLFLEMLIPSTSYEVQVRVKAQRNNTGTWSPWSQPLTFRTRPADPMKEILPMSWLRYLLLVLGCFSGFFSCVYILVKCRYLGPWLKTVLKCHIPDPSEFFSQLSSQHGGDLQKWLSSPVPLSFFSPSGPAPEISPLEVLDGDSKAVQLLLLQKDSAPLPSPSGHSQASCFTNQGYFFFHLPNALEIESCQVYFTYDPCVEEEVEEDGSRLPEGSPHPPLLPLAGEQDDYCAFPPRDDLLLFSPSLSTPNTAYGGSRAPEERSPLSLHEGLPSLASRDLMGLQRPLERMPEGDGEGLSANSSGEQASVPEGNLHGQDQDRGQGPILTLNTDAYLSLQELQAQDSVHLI
T2 sequence (looked up) 2: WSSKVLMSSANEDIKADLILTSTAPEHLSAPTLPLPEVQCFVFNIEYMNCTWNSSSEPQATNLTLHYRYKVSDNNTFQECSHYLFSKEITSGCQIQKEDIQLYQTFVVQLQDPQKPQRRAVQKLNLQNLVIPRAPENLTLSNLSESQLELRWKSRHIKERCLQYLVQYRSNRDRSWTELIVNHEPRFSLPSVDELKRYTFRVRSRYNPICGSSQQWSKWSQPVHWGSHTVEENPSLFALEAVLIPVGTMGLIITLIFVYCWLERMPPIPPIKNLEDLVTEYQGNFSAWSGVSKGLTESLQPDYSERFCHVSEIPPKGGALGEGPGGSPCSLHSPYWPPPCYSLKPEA

T3: human IL-2 receptor β subunit (hIL-2Rβ) (human, UniProt P14784 27-240, biotin on the C-terminal biotin acceptor peptide)
T3 construct: Biotinylated and immobilised on streptavidin; also called HsIL-2Rβ; human IL-2Rβ
T3 sequence: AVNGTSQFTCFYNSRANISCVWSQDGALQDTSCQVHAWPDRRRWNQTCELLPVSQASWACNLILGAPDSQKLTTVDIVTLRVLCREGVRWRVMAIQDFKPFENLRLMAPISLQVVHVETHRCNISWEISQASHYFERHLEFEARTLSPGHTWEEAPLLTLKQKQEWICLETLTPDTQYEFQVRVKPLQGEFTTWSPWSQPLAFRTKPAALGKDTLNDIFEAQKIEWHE

T4: mouse IL-2 receptor β subunit (mIL-2Rβ) (mouse, UniProt P16297 27-240, biotin on the C-terminal biotin acceptor peptide)
T4 construct: extracellular domain; Biotinylated form for SPR; also called MmIL-2Rβ; murine IL-2Rβ
T4 sequence: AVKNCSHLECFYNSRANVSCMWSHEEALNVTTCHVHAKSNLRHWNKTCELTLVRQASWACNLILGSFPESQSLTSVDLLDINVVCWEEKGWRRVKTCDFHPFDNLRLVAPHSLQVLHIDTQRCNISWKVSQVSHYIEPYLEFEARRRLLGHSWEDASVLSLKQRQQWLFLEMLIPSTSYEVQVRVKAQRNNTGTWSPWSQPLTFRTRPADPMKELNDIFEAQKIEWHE

B1: mouse interleukin-2 (mIL-2) (ligand, UniProt P04351 21-169, looked up)
chain: APTSSSTSSSTAEAQQQQQQQQQQQQHLEQLLMDLQELLSRMENYRNLKLPRMLTFKFYLPKQATELKDLQCLEDELGPLRHVLDLTQSKSFQLEDAENFISNIRVTVVKLKGSDNTFECQFDDESATVVDFLRRWIAFCQSIISTSPQ
notes: range 1-149; Baculovirus expression for SPR; also called MmIL-2; mouse IL-2
B2: G1_neo2_40_1F (designed binder)
chain: STKKTQLLAEHALLDALMMLNLLPEPNEKLNRIITTMQSWIFTGKIDGDGAQELAKEVEELEQEHEKRGIDVEDYASNLKVILLELA
notes: also called G1_ne02_40_1F
B3: G2_neo2_40_1F_dsn36 (designed binder)
chain: PKKKIQLLAEHALLDALMILNIVKTNSQNAEEKLEDYASNVEVILEEIARLMESGDQKDEAEKAKRMKEWMKRIKTTASEDEQEEMANRIITLLQSWIFS
notes: E. coli, N-terminal 6xHis tag and thrombin site

Experiments:
[1] = biological target: T1, human IL-2Rβγc on human cells (YT-1 NK …); experiment: cell-based or functional assay
[2] = biological target: T2, mouse IL-2Rβγc on murine cells (CTLL-2 …); experiment: cell-based or functional assay
[3] = biological target: T3, human IL-2 receptor β subunit (hIL-2Rβ); experiment: SPR, equilibrium titration; biotinylated IL-2Rβ on streptavidin chip
[4] = biological target: T4, mouse IL-2 receptor β subunit (mIL-2Rβ); experiment: as above

Binder	EC50 (CD25-) pSTAT5p, human NK (YT, CD25-) cells [1] [nM]	EC50 (CD25+) pSTAT5, murine T (CTLL-2, CD25+) cells [2] [nM]	Kd [3] [nM]	Kd [4] [nM]
B1	39	0.003	4950	1500
B2	0.09	0.2	2.6	486
B3	0.12	1.36	27.6	2430
